The text below walks through data of article PMC9268357 (Science (New York, N.y.), 2021).

In assay [1] the target is T1, prefusion-stabilized SARS-CoV S ectodomain trimer (SARS-CoV, isolate , UniProt P59594, stabilised). The experiment in a line: cell-based or functional assay.
Assay [2] addresses T2, prefusion-stabilized MERS-CoV S ectodomain trimer (MERS-CoV, isolate not shown; stand-in …, UniProt K9N5Q8, stabilised). The assay can be described thus: cell-based or functional assay.
Assay [3] deals with T1, prefusion-stabilized SARS-CoV S …. The assay can be described thus: SPR; S2P6 Fab fragment and S glycoproteins (fig. S1, G and H). The note with it: both partners purified. Background: SPR reads the build-up and loss of mass on a sensor chip optically.
Assay [4] concerns the target T2, prefusion-stabilized MERS-CoV S …. The description is as above. Particulars: both partners purified.

B1: S2P6 monoclonal antibody (antibody, V domains shown)
VH: EVQLVQSGAEVKKPGASVKVSCKASGYTFTSQYMHWVRQAPGQGLEWIGIINPSGVHTSYAQKFQGRVTLTRDTSTSTLYMELSSLRSEDTAVYYCARGSPKGAFDYWGQGTLVTVSS
VL: not shown
notes: also called S2P6 mAb; S2P6 IgG; copies: 2 + 2
For the molecule B1, the “neutralization of VSV pseudotyped with SARS-CoV S, IC50” value in assay [1] worked out at 2.4 µg/mL. Besides, in assay [2], the “neutralization of VSV pseudotyped with MERS-CoV S, IC50” value came to 17.1 µg/mL.

B2: S2P6 Fab fragment (Fab, V domains shown)
VH: EVQLVQSGAEVKKPGASVKVSCKASGYTFTSQYMHWVRQAPGQGLEWIGIINPSGVHTSYAQKFQGRVTLTRDTSTSTLYMELSSLRSEDTAVYYCARGSPKGAFDYWGQGTLVTVSS
VL: not shown
Turning to B2, the Kd (in general, the equilibrium constant for the complex coming apart) worked out at 7 nM in assay [3] and 12 nM in assay [4].
